# Laboratory results reported in US10391180B2, “Self-assembling complex for targeting chemical agents to cells” (CEDARS-SINAI MEDICAL CENTER, priority 2007, dated 2019).
# Legend:
# [1] = HerDox stability in cell culture media, agarose gel; format: in vitro ADME; details: serum-containing culture media, 37° C.
# Protocol: FIGS. 9 (A)-(C) illustrates targeting in a mixed cell culture. As illustrated in FIG. 10 (A), equal numbers of MDA-MB-435 and GFP(+) MDA-MB-231 cells were treated with Dox alone (0.5 uM), Her-Dox (containing 0.5 uM Dox), or HerPBK10 (1.2 ug/well, equivalent to HerPBK10 in HerDox). Wells were assayed for GFP fluorescence (to determine relative MDA-MB-231 number) and crystal violet staining (to determine total cell number). As illustrated in FIG. 9 (B), cell survival was determined by calculating the relative doubling time (DT) of experimental (exp) cells normalized by control (con) cells based on the crystal violet stains (total cells) and GFP fluorescence (MDA-MB-231 cells). The DT of MDA-MB-435 was determined by subtracting the DT of MDA-MB-231 from the total cell DT. Relative survival is shown for Day 2 of treatment. As illustrated in FIG. 9 (C), there is stability in cell culture. Aliquots of culture media containing HerDox (after incubation for the indicated times at 37° C.) were electrophoresed on a 2% agarose gel. HerDox incubated at 37° C. in HEPES-buffered saline, lacking serum, was processed in parallel. Dox fluorescence was visualized by UV excitation. Free Dox (Dox alone) is not retained in the gel whereas Dox incorporated in HerDox is. […]
# HER2+ tumors = assay: HerDox vs Dox biodistribution by Dox fluorescence imaging; format: in vivo, mice
# Protocol: FIGS. 11 (A)-(B) illustrates preferential targeting of HerDox to HER2+ tumors. Tumor-bearing mice were injected with 0.75 nmoles of HerDox or Dox via the tail vein and imaged with a custom small animal imager. FIG. 11 (A) depicts imaging of live mice after IV delivery of HerDox. Tumors are indicated by arrows. FIG. 11 (B) depicts imaging of tumors and tissues harvested at 3 h after injection of HerDox or Dox. Fluorescence signal from Dox is pseudo-colored according to the color bar, with a shift toward 100 indicating high fluorescence intensity. FIG. 11 (B) illustrates a comparison of the targeted delivery of Dox to HER2+ breast cancer cells with minimal delivery to other organs and tissues using a delivery system in accordance with an embodiment of the present invention (left panel), as compared with Dox administered alone (right panel).
# Dox emits a red fluorescence upon appropriate wavelength excitation, which can be used to detect biodistribution after systemic delivery of HerDox. Mice bearing 4-week old) tumors (˜700-800 mm^3) received a single tail vein injection of Dox or HerDox ([…] with respect to Dox cone) and images of live mice captured in real time, or of organs/tissues harvested at ˜3 h postinjection were acquired using a customized macro-illumination and detection system. Fluorescence was evident throughout the body at 10 min after HerDox injection, then quickly accumulated at the tumors by 20 min and remained detectable in the tumors up to 100 min after injection (FIG. 11 (A)).
# MDA-MB-435 cells = assay: Intracellular translocation in live cells, Dox fluorescence microscopy; format: cell-based; details: for intracellular location of Dox fluorescence: 0.5 uM
# Protocol: FIGS. 14 (A)-(B) illustrates comparison of HerDox and Dox intracellular translocation and targets in live cells. MDA-MB-435 cells were incubated with HerDox or free Dox (0.5 uM) at 37° C. Live (unfixed) cells were imaged by brightfield and fluorescence as depicted in […], or DIC and confocal fluorescence, as depicted in FIG. 14 (B), microscopy. Dox is indicated by red or magenta pseudocolor.
# To understand the mechanism of HerDox mediated tumor cell death, the inventors examined HER2+ cells microscopically after treatment with HerDox, using Dox fluorescence to detect intracellular location. […] These dynamics, in addition to earlier targeting results, support a receptor-mediated HerDox entry mechanism. Even the intranuclear pattern of Dox when delivered by HerPBK10 differs from free Dox.
# [2] = harvested at 3 h after injection
# [3] = single tail vein injection, live imaging
molecule,measurement,setting,value
"HerDox: non-covalent complex of HerPBK10, a small double-stranded nucleic acid and intercalated Dox (conjugate, left off: small tags and cut ends, non-covalent complex of HerPBK10, a small double-stranded nucleic acid and intercalated Dox) LPPRLKEMKSQESAAGSKLVLRCETSSEYSSLRFKWFKNGNELNRKNKPQNIKIQKKPGKSELRINKASLADSGEYMCKVISKLGNDSASANITIVESNEIITGMPASTEGAYVSSESPIRISVSTEGANTSSSTSTSTTGTSHLVKCAEKEKTFCVNGGECFMVKDLSNPSRYLCKCQPGFTGARCTENVPMKVQNQEKAEELYMRRAAMYEEGPPPSYESVVSAAPVAAALGSPFDAPLDPPFVPPRYLRPTGGRNSIRYSELAPLFDTTRVYLVDNKSTDVASLNYQNDHSNFLTTVIQNNDYSPGEASTQTINLDDRSHWGGDLKTILHTNMPNVNEFMFTNKFKARVMVSRLPTKDNQVELKYEWVEFTLPEGNYSETMTIDLMNNAIVEHYLKVGRQNGVLESDIGVKFDTRNFRLGFDPVTGLVMPGVYTNEAFHPDIILLPGCGVDFTHSRLSNLLGIRKRQPFQEGFRITYDDLEGGNIPALLDVDAYQASLKDDTEQGGGGAGGSNSSGSGAEENSNAAAAAMQPVEDMNDHAIRGDTFATRAEEKRAEAEAAAEAAAPAAQPEVEKPQKKPVIKPLTEDSKKRSYNLISNDSTFTQYRSWYLAYNYGDPQTGIRSWTLLCTPDVTCGSEQVYWSLPDMMQDPVTFRSTRQISNFPVVGAELLPVHSKSFYNDQAVYSQLIRQFTSLTHVFNRFPENQILARPPAPTITTVSENVPALTDHGTLPLRNSIGGVQRVTITDARRRTCPYVYKALGIVSPRVLSSRTFKKKKKKKKKK",loss of Dox fluorescence from conjugate over time,[1],no such loss from HerDox is detectable
same,"Dox fluorescence in heart, spleen, lungs, and skeletal muscle",HER2+ tumors; [2],did not exhibit any fluorescence
same,Dox fluorescence in kidneys,HER2+ tumors; [2],barely detectable
same,Dox fluorescence in liver,HER2+ tumors; [2],substantially lower levels of fluorescence
same,Dox fluorescence in tumors,HER2+ tumors; [2],intense fluorescence
same,time by which fluorescence accumulated at the tumors,HER2+ tumors; [3],≤ 20 min
same,time fluorescence remained detectable in the tumors,HER2+ tumors; [3],up to 100 min
same,intracellular location of Dox fluorescence,MDA-MB-435 cells; 0 min of uptake,mostly at the cell periphery
same,intracellular location of Dox fluorescence,MDA-MB-435 cells; 60 min,accumulated in the nucleus
same,intranuclear pattern of Dox,"MDA-MB-435 cells; live cells, confocal",preferentially accumulates in nucleolar structures
